In the DeepSol protein solubility set:

Experiment: soluble on expression in E. coli; label from the status in PepcDB or PDB records

| Sequence | soluble on expression in E. coli |
| --- | --- |
| MSKVKTRFAPSPTGYLHLGNARTAIFSYLFARHNNGGFVLRIEDTDPERSKKEYEEMLIEDLKWLGIDWDEFYRQSERFDIYREYVNKLLESGHAYPCFCTPEELEKEREEARKKGIPYRYSGKCRHLTPEEVEKFKKEGKPFAIRFKVPENRTVVFEDLIKGHIAINTDDFGDFVIVRSDGSPTYNFVVVVDDALMGITHVIRGEDHIPNTPKQILIYEALGFPVPKFAHLPVILGEDRSKLSKRHGAVSVRAYREEGYMPEALFNYLCLLGWSPPEEGREIFSKEELIKIFDLKDVNDSPAVFNKEKLKWMNGVYIREVLPLDVLLERAIPFLEKAGYDTSDREYIKKVLEYTRDSFDTLSEMVDRLRPFFVDEFEIPEELWSFLDDEKAYQVLSAFLEKIREKKPETPQEVKKLAKEIQKALKVKPPQVWKPLRIALTGELEGVGIDILIAVLPKEKIEKRILRVLEKLS | soluble |
| MSLADRLTIGEFSRITHLSIRMLRRYHEQDLLVPAEVDPDTGYRYYSPAQIRPALTVRRFRDLDLPLADLRRFLAAESADGPDDGTAQQVVAAHLRRLEDRLGRTQRAVEVLRELLDPEAERAVTLEELPARRVLAVTLDVPEGAGLDWYDEAMCDVDSAAGERSVLPPGGRYEHTLFTEGHGRATVYVPFEAPLPPEMPGRVRELHLPRRTAAVATHQGRHDDLDLTYGAVGSFAARNDLRSQDLVEEVYLVGPRDTDRPELWRTLVAWLIAPENEGHHHHHH | soluble |
| MSLAESAFSERIVQNLLDTDFYKLTMMQAVLHNYPNAEVEWEFRCRNQEDLRLYLPAIREQLEYLAGLAISDEQLAFLERIPFLAPDFIRFLGLFRFNPRYVQTGIENDEFFLRLKGPWLHVILFEVPLLAMISEVRNRARYPAATVEQARERLQEKFDWLRREASAEELAGFKMADFGTRRRFSYRVHEAVVSGLKEDFPGCFVGTSNVHLARKLDLKPLGTMAHEWLMAHQQLGPRLIDSQSAALDCWVREYRGLLGIALTDCITTDAFLRDFDLYFAKLFDGLRHDSGDPLLWAEKTIAHYLKLGIDPLTKTLVFSDGLDLPRALKIYRALQGRINVSFGIGTHFTCDLPGVEPMNIVVKMSACNGHPVAKISDTPGKAQCRDPDFIHYLKHVFQVAEGHHHHHH | soluble |
| MSLAEVTVVNFGGANGDAQKAAFNKPFEAQTGNKVTAVEYNGEQAKIKAMVEAKHVNWDVVEVESGDIGRGCDEGLFEKLDWSKIAKKADLVPEAPHTCGVGFFVWSTALAYNADKLKAAPSGWADFWDVKKFPGKRGMRKGARYNLEFALMADGVPVKDVYKVLATKDGQNRAFKKLDQLKPYIQWWEAGAQPPQFLVAGDVVMSTAFNGRIDAAQREGKNLKVVWNGSIYDLDYWAIPKGTPNKALAEQYIAYTLSQKAQQEYAKHIAYGPANLAAIKALDAKTQANLPNSPENGKSAVLQNLQFWTDHGDELEQRFASWASKEGHHHHHH | soluble |
| MSLAFGLDKLVDLLKAAGEPTRFRLLALLSAGDLTVTDLTEILGQSQPRISRHLKLLTEEGLIERYQEGAWAYFRLRQDGEPAVVVRQLLGAASPSDAVLQRDSERLATVKRVRAERAQDYFSRNASAWDELRRLHVSDEAVEGALLKLVGTTPIDSLLDLGTGTGRILQLLSGIYRRAIGVDASRDMLSVARANLDKAGVGNASVRHGDILNLPLEGQDFDLIVIHQVLHFLDQPEIALSEAARMLRPGGRLIVIDLAPHSFEYLRDEHAHVRLGFSHPLMEEWMKKAGLSLERAVDLHSEKASDEALDVTIWVARDQRLLMADDVVQEAVLLRSGRAEGHHHHHH | soluble |
| MSLAIGDILRKSARRFPDRVALTDGGRSVTYTELERDANRFANALVARGLKPGAKISTVCNNSIEFVKALFGIHRAGLVWVPINTMLGPDDMGYILDHAGVKVAVIDDNLHGQPERRAALEARGIDLIAINLAGKAADTGLPVFDQLIEGLSEIEPDVAFDDRDLAMIIYTSGTTSRPKGAMHCHLAVTMAVMSNAIEMQLSRKDGITGQFPLFHCAAHVLLLSYLIVGGQMAIMRGFDPVACMEAIQRNKLTVFIGLPLMYQVILDHPRRKEFDLSSLRCCIYTMAPMPRPLLERAIAELCPTFVQPSGQTEMYPATTMSQPDRQLARFGNYWGESTLVNETAIMDDAGNLLPPGEVGEIVHRGPNVMLGYYKDPEATEAARKFGWHHTGDLALIDEHGEVLFLDRKKDMIKSGGENVASIKIEETLLAHPSVMNAAVVGLPHPQWGEAVSGFVKLKPGASATEAEIVEHCKKHLGGFQVPKLLRIVDEMPMTATGKLRKVELRNQFTDHFMLGQTEGHHHHHH | soluble |
| MSLAIGRILIIDDENINAETMMDTLEDVNYHVVLAANANQAKTIVEDQIFDLVMMDVWMPAQDGMSLLEEWTQSGFSTPIVMMSGHAEHQDVVKAIKLGAVDFLEKPLHDILPLVRKILSEQVLEKSEHTINGIEFNAPLKEARNIFEVQYFNHHLQENKHNIAKVAILAGLERTTLYRKLKDLGIDKEGHHHHHH | soluble |
| MSLAILIKNRIGKGYPIYTSTVLNEKLSDEGNLTFDILENENTYDLISAVSKMWTVHNVAGPDDKRVFVITIIDRQSRGEKQYVSITARQKEIDDLMTQRIYSNVTGSFTVENYFKIVFQGSGYKYKIPIKVPSSRWENAGDGDSRYEMFKNGLERYDLEYTYDPSNKTFTLEPFVEKKTSYYISSKVNANNLKLEEDASECYTYIRGYGGFEEDESFMQGSVQVEFTHPLAKVIGKREAPPKIDGRITNIETMKREIEAIIAQSLKTSLSLDFVALREVFPSAVPRIGDLVPVRDDIIDINDSVRIIEIKTTRDAHNKIIKQDVVLGDIRRRDRYTKSVNNAATLASGLGGGSEGHHHHHH | soluble |
| MSLAITTSPPTVSDTKRIFYANYKKLLLPLYNTPIQNMLVKQHIHRYNKNYTYSDVSALGIVTTLDSVLNTFPDDEKTSIKNAFIISLNEDPEMYYSNIESLKPYAKSSHLGPNKHGNTLQKSLYDIAINDKYVYSSFAAVGIFKLLQMNGNYTGNSVKHLSESIGFKGELVHKDIATFFSLLKYIESSQKLADDIREESLKREGHHHHHH | soluble |
| MSLALIVQKFGGTSVGTVERIEQVAEKVKKFREAGDDVVVVVSAMSGETNRLIGLANQIMEQPVPRELDVMVSTGEQVTIALLSMALIKRGVPAVSYTGNQVRILTDSAHTKARILHIDDTHIRADLKAGRVVVVAGFQGVDGNGNITTLGRGGSDTTGVALAAALKADECQIYTDVDGVYTTDPRVVPQARRLDKITFEEMLEMASLGSKVLQIRAVEFAGKYNVPLRVLHSFQEGPGTLITIDDEEESMEQPIISGIAFNRDEAKLTIRGVPDTPGVAFKILGPISAANVEVDMIVQNVAHDNTTDFTFTVHRNDYLNALEILKQTAANIGAREAIGDTNIAKVSIVGVGMRSHAGVASRMFEALAKESINIQMISTSEIKVSVVIEEKYLELAVRALHTAFELDAPARQGEEGHHHHHH | soluble |
| MSLANKPLAKALETISGIPITPFRKSDGSIDWHHYKETVDRIVDNGIDVIVPCGNTSEFYALSLEEAKEEVRRTVEYVHGRALVVAGIGYATSTAIELGNAAKAAGADAVMIHMPIHPYVTAGGVYAYFRDIIEALDFPSLVYFKDPEISDRVLVDLAPLQNLVGVKYAINDLPRFAKVVRSIPEEHQIAWICGTAEKWAPFFWHAGAKGFTSGLVNLLPQKAVEMLEALRNNDNDAVWRIWEDIVPFEDLRGKYNQGNNVVVIKEAMEMLRQNAGVTRAPVNELSNEDKQLVTELLSSWKLLQPTKGEGHHHHHH | soluble |
| MSLANWVASSTVTADGHHLLGNPAAKLRLVEFVSYTCPHCSHFEIESEGQLKIGMVQPGKGAIEVRNFVRDPIDMTVALITNCVPPSRFFTLHTAFMRSQAQWIGPLANSTEAQRQRWFNGTFATRTRAIASDFRFYDFMAARGMDRSTLDRCLSNEALAKKLAAETDEAINQYNVSGTPSFMIDGILLAGTHDWASLRPQILARLNEGHHHHHH | soluble |
| MSLAPCGLVPSARQLEWYNREMIAFFHFGINTFEEYVNEGDGKASTAIFNPTALDCRQWMQTLKAAGIPAAILTAKHADGFCLWPSKYTDYSVKNAAWKNGKGDVVREFVDACEEYGLKAGIYLGPHDRHEHLSPLYTTERYKEYYAHQLGELMSDYGKIWETWWDGAGADELTTPVYRHWYKIVREKQPDCVIFGTKNSYPFADVRWMGNEAGEAGDPCWATTDSVAIRDEAQYYKGLNEGMLDGDAYIPAETDVSIRPSWFYHAEEDSRVKSVRELWDIYCTSVGRNSVLLLNFPPDRRGLIHSTDSLHAALLKQGIDETFSTNLLRGAKVKATNVRGAKYSPEKMLDNEKNTYFAGKDGEVKADIIFTLPKTIEFDCLMIEEVIELGHRTTKWSVEYTVDGKNWITIPEATDKQAIGHKWIVRLAPVKAKQVRLRIQDGKACPAIHTFGVYKQSPVFKEGHHHHHH | soluble |
